# Assay results published in patent publication US20250339569A1 (3B PHARMACEUTICALS, published 2025).
# Starred links: 1 amine or outer side, 2 acyl side, 3 side chain; linkers in the order of their positions; H or OH if unused. Positions of bridges follow the written chain, without caps; N, C: chain ends. Non-standard residues stand in square brackets, D forms with d. Groups on a side chain read outwards from the residue. Primed or numbered codes have the meaning given here. No end group written: not given here. *: point of attachment. Af3(4SaPy2Ac) = 3-amino-L-phenylalanine, ring amine acylated with (4-sulfamoylpyrazol-1-yl)acetic acid, NS(=O)(=O)c1cnn(CC(=O)Nc2cccc(C[C@H](N[*:1])C(=O)[*:2])c2)c1; Af3(Hsfu) = 3-amino-L-phenylalanine, ring amine acylated with 4-sulfamoylfuran-2-carboxylic acid, NS(=O)(=O)c1coc(C(=O)Nc2cccc(C[C@H](N[*:1])C(=O)[*:2])c2)c1; Aph(SaPr)″ = 4-amino-L-phenylalanine, ring amine acylated with 3-sulfamoylpropanoic acid, NS(=O)(=O)CCC(=O)Nc1ccc(C[C@H](N[*:1])C(=O)[*:2])cc1; Af3(MCprAc) = 3-aminophenylalanine with 1-methylcyclopropane-1-carbonyl on the ring amine, CC1(C(=O)Nc2cccc(C[C@H](N[*:1])C(=O)[*:2])c2)CC1; Aph(SaPr) = 4-amino-L-phenylalanine, ring amine acylated by 3-sulfamoylpropanoic acid, NS(=O)(=O)CCC(=O)Nc1ccc(C[C@H](N[*:1])C(=O)[*:2])cc1; Af3(HO-Succinyl) = 3-aminophenylalanine with succinyl (free acid) on the ring amine, O=C(CCC(=O)[*:3])Nc1cccc(C[C@H](N[*:1])C(=O)[*:2])c1; Af3(MSAc) = 3-aminophenylalanine with 2-methanesulfonylacetyl on the ring amine, CS(=O)(=O)CC(=O)Nc1cccc(C[C@H](N[*:1])C(=O)[*:2])c1; Af3(Iva) = 3-aminophenylalanine with isovaleryl on the ring amine, CC(C)CC(=O)Nc1cccc(C[C@H](N[*:1])C(=O)[*:2])c1; Af3(Prp) = 3-aminophenylalanine with propionyl on the ring amine, CCC(=O)Nc1cccc(C[C@H](N[*:1])C(=O)[*:2])c1; Phe(3-NHCO(CH2)3SO2NH2) = N[C@@H](Cc1cccc(NC(=O)CCCS(N)(=O)=O)c1)C(=O)O; APAc″ = 2-(4-(amino)piperidin-1-yl)acetic acid, NC1CCN(CC(=O)*)CC1; DOTA = O=C(O)CN1CCN(CC(=O)O)CCN(CC(=O)*)CCN(CC(=O)O)CC1; Trp(7-aza) = N[C@@H](Cc1c[nH]c2ncccc12)C(=O)O; PPAc = 4-carboxymethyl piperazine linker; mXylylene = c1cc(C[*:1])cc(C[*:2])c1; 3Amb = NCc1cccc(C(=O)O)c1; 4Amb = NCc1ccc(C(=O)O)cc1; 4Amc = not defined here; APAc = not defined here; Inp′ = not defined here; Apr = not defined here; Cmp = not defined here; Dap = NC[C@H](N)C(=O)O
# Experiments:
# [1] = target: human carbonic anhydrase 9 (CAIX) (human, UniProt Q16790 38-459); assay: FACS competition on HT-29 cells, competitor tracer 3BP-2776; category A = pIC50 >8.0
# Description: CAIX-expressing human HT-29 colorectal cancer cells (DSMZ, RRID: CVCL_0320) were cultured in McCoys's 5A modified medium (Biochrom, #F1015) including 10% fetal calf serum (FCS), 2 mM L-glutamine, 100 U/ml penicillin and 100 μg/mL streptomycin. Cells were detached with Accutase (Biolegend, #423201) and washed in FACS buffer (PBS including 1% FCS). Cells were diluted in FACS buffer to a final concentration of 500.000 cells per ml. 200 μL of the cell suspension were transferred to a u-shaped non-binding 96-well plate (Greiner) and cells were washed in ice-cold FACS buffer.
# When biotinylated compounds were used an additional incubation step with 1 μg/mL APC-Streptavidin (Miltenyi; #130-106-791) in 50 μL FACS buffer for 30 minutes on ice was performed.
# Cells were washed twice with ice-cold FACS buffer and analyzed in an Attune NxT flow cytometer (Thermo Fisher). Median fluorescence intensities (MFI) of the APC/Cy5-channel were calculated by Attune NxT software.
# [2] = target: T1, Fc-fusion protein of human carbonic anhydrase IX (human, UniProt Q16790 38-414); assay: SPR, captured hCAIX-Fc; t1/2 category A: >15.0 min
# Description: (§1) Stock solutions of test compounds were prepared by dissolving each compound in DMSO. DMSO stock solution were diluted 1:1000 in Running Buffer without DMSO. […] SPR binding analyses were performed in Single Cycle Kinetic (SCK) mode at 25° C.
# (§2) For each test compound, SPR raw data in the form of resonance units (RU) were plotted as sensorgrams using the Biacore™ T200 control software. The signal from the blank sensorgram was subtracted from that of the test compound sensorgram (blank corrected). The blank corrected sensorgram was corrected for baseline drift by subtracting the sensorgram of a SCK run without the test compound (running buffer only). […] Raw data and fit results were imported as text files in IDBS. The pKD value (negative decadic logarithm of dissociation constant) was calculated in the IDBS excel template.
# [3] = target: T1, Fc-fusion protein of human carbonic …; assay: SPR, captured hCAIX-Fc; pKD category A: >8.0
# Description: as §1, §2
Binder,pIC50 [1],"t1/2 (half-life of the complex, SPR) [2]",pKD [3]
"{GaDOTA-PPAc}-QCE[dP]D[Phe(3-NHCO(CH2)3SO2NH2)]LTWSC-NH2 (linker 2-11 via mXylylene; also: gallium in DOTA, also called natGa-DPI-4452) [3BP-4529]",,> 15 min,
"[dP]PVYCE[dP]DWLTWSC (linker 5-14 via mXylylene; not fully specified (bridges), Bracket use differs from the other compounds; the outer cycle is read as closing pro1 with Cys14) [3BP-4178]",> 8 pic50,,
{DOTA-4Amb}-DCE[dP]DWLTW[Dap]C-NH2 (lactam 10-1; linker 2-11 via mXylylene; SMILES CC(C)C[C@@H]1NC(=O)[C@H](Cc2c[nH]c3ccccc23)NC(=O)[C@H](CC(=O)O)NC(=O)[C@H]2CCCN2C(=O)[C@H](CCC(=O)O)NC(=O)[C@@H]2CSCc3cccc(c3)CSC[C@@H](C(N)=O)NC(=O)[C@H](CNC(=O)C[C@H](NC(=O)c3ccc(CNC(=O)CN4CCN(CC(=O)O)CCN(CC(=O)O)CCN(CC(=O)O)CC4)cc3)C(=O)N2)NC(=O)[C@H](Cc2c[nH]c3ccccc23)NC(=O)[C@H]([C@@H](C)O)NC1=O) [3BP-4261],> 8 pic50,,
{DOTA-APAc″}-VYCE[dP]D[Af3(Prp)]LTWSC-NH2 (linker 3-12 via mXylylene) [3BP-4235],> 8 pic50,,
{DOTA-4Amc}-DCE[dP]DWLTW[Dap]C-NH2 (lactam 10-1; linker 2-11 via mXylylene; reading uncertain) [3BP-4258],> 8 pic50,,
{DOTA}-QCE[dP]D[Aph(SaPr)″]LTWSC-NH2 (linker 2-11 via mXylylene; also: Ga complexed in DOTA) [3BP-4602],,> 15 min,
{DOTA-Cmp}-DCE[dP]DWLTW[Dap]C-NH2 (lactam 10-1; linker 2-11 via mXylylene; reading uncertain) [3BP-4259],> 8 pic50,,
{DOTA-APAc″}-DCE[dP]DWLTW[Dap]C-NH2 (lactam 10-1; linker 2-11 via mXylylene) [3BP-4254],> 8 pic50,,
{DOTA-PPAc}-DCE[dP]DWLTW[Dap]C-NH2 (lactam 10-1; linker 2-11 via mXylylene) [3BP-4255],> 8 pic50,,
Ac-VYCE[dP]DWLTWSC-NH2 (linker 3-12 via mXylylene; SMILES CC(=O)N[C@H](C(=O)N[C@@H](Cc1ccc(O)cc1)C(=O)N[C@H]1CSCc2cccc(c2)CSC[C@@H](C(N)=O)NC(=O)[C@H](CO)NC(=O)[C@H](Cc2c[nH]c3ccccc23)NC(=O)[C@H]([C@@H](C)O)NC(=O)[C@H](CC(C)C)NC(=O)[C@H](Cc2c[nH]c3ccccc23)NC(=O)[C@H](CC(=O)O)NC(=O)[C@H]2CCCN2C(=O)[C@H](CCC(=O)O)NC1=O)C(C)C) [3BP-3565],,> 15 min,> 8 pkd
{DOTA-APAc″}-VYCE[dP]DWLTWAC-NH2 (linker 3-12 via mXylylene) [3BP-3432],,> 15 min,> 8 pkd
Ac-VYCE[dP]DWLTWAC-NH2 (linker 3-12 via mXylylene; SMILES CC(=O)N[C@H](C(=O)N[C@@H](Cc1ccc(O)cc1)C(=O)N[C@H]1CSCc2cccc(c2)CSC[C@@H](C(N)=O)NC(=O)[C@H](C)NC(=O)[C@H](Cc2c[nH]c3ccccc23)NC(=O)[C@H]([C@@H](C)O)NC(=O)[C@H](CC(C)C)NC(=O)[C@H](Cc2c[nH]c3ccccc23)NC(=O)[C@H](CC(=O)O)NC(=O)[C@H]2CCCN2C(=O)[C@H](CCC(=O)O)NC1=O)C(C)C) [3BP-3282],,> 15 min,> 8 pkd
{DOTA-APAc″}-VYCE[dP]D[Af3(Iva)]LTWSC-NH2 (linker 3-12 via mXylylene) [3BP-4236],> 8 pic50,,
{DOTA-3Amb}-DCE[dP]DWLTW[Dap]C-NH2 (lactam 10-1; linker 2-11 via mXylylene; SMILES CC(C)C[C@@H]1NC(=O)[C@H](Cc2c[nH]c3ccccc23)NC(=O)[C@H](CC(=O)O)NC(=O)[C@H]2CCCN2C(=O)[C@H](CCC(=O)O)NC(=O)[C@@H]2CSCc3cccc(c3)CSC[C@@H](C(N)=O)NC(=O)[C@H](CNC(=O)C[C@H](NC(=O)c3cccc(CNC(=O)CN4CCN(CC(=O)O)CCN(CC(=O)O)CCN(CC(=O)O)CC4)c3)C(=O)N2)NC(=O)[C@H](Cc2c[nH]c3ccccc23)NC(=O)[C@H]([C@@H](C)O)NC1=O) [3BP-4260],> 8 pic50,,

# Next, values leading:
pIC50 [1],"t1/2 (half-life of the complex, SPR) [2]",pKD [3],Binder
> 8 pic50,,,{DOTA-APAc″}-VYCE[dP]D[Af3(MSAc)]LTWSC-NH2 (linker 3-12 via mXylylene) [3BP-4242]
,> 15 min,,{DOTA-PPAc}-QCE[dP]D[Af3(Hsfu)]LTWSC-NH2 (linker 2-11 via mXylylene) [3BP-4788]
> 8 pic50,,,{DOTA-APAc″}-VYCE[dP]D[Af3(MCprAc)]LTWSC-NH2 (linker 3-12 via mXylylene) [3BP-4234]
> 8 pic50,,,{DOTA-APAc″}-VYCE[dP]DWLT[Trp(7-aza)]SC-NH2 (linker 3-12 via mXylylene) [3BP-4159]
,> 15 min,> 8 pkd,{DOTA-APAc}-VYCE[dP]NWLTWSC-NH2 (linker 3-12 via mXylylene; reading uncertain) [3BP-4103]
,> 15 min,> 8 pkd,Ac-VYCE[dP]DWLTWE([Apr-DOTA])C-NH2 (linker 3-12 via mXylylene; reading uncertain) [3BP-3478]
> 8 pic50,,,{DOTA-Inp′}-DCE[dP]DWLTW[Dap]C-NH2 (lactam 10-1; linker 2-11 via mXylylene) [3BP-4256]
,> 15 min,,{DOTA-PPAc}-QCE[dP]D[Af3(4SaPy2Ac)]LTWSC-NH2 (linker 2-11 via mXylylene) [3BP-4790]
,> 15 min,,{DOTA}-QCE[dP]D[Phe(3-NHCO(CH2)3SO2NH2)]LTWSC-NH2 (linker 2-11 via mXylylene; SMILES CC(C)C[C@@H]1NC(=O)[C@H](Cc2cccc(NC(=O)CCCS(N)(=O)=O)c2)NC(=O)[C@H](CC(=O)O)NC(=O)[C@H]2CCCN2C(=O)[C@H](CCC(=O)O)NC(=O)[C@@H](NC(=O)[C@H](CCC(N)=O)NC(=O)CN2CCN(CC(=O)O)CCN(CC(=O)O)CCN(CC(=O)O)CC2)CSCc2cccc(c2)CSC[C@@H](C(N)=O)NC(=O)[C@H](CO)NC(=O)[C@H](Cc2c[nH]c3ccccc23)NC(=O)[C@H]([C@@H](C)O)NC1=O) [3BP-4453]
,> 15 min,,{DOTA-PPAc}-QCE[dP]D[Aph(SaPr)]LTWSC-NH2 (linker 2-11 via mXylylene) [3BP-4500]
> 8 pic50,,,{DOTA}-DCE[dP]DWLTW[Dap]C-NH2 (lactam 10-1; linker 2-11 via mXylylene; SMILES CC(C)C[C@@H]1NC(=O)[C@H](Cc2c[nH]c3ccccc23)NC(=O)[C@H](CC(=O)O)NC(=O)[C@H]2CCCN2C(=O)[C@H](CCC(=O)O)NC(=O)[C@@H]2CSCc3cccc(c3)CSC[C@@H](C(N)=O)NC(=O)[C@H](CNC(=O)C[C@H](NC(=O)CN3CCN(CC(=O)O)CCN(CC(=O)O)CCN(CC(=O)O)CC3)C(=O)N2)NC(=O)[C@H](Cc2c[nH]c3ccccc23)NC(=O)[C@H]([C@@H](C)O)NC1=O) [3BP-4253]
> 8 pic50,,,{DOTA-APAc″}-VYCE[dP]D[Af3(HO-Succinyl)]LTWSC-NH2 (linker 3-12 via mXylylene) [3BP-4237]
